Laboratory results published in the supplement of paper PMC9170038.

System: MS2 coat protein
Test: apparent KD of MS2 coat protein; designed switch direction (-1 OFF switch, 1 ON switch): -1; higher = weaker reporter binding
Summary of the method: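 SNAP-549-labelled MS2 coat protein was titrated, doubling from 0.7 or 1.5 nM to 3 µM, over designed RNA switches transcribed on Illumina chips by stalled E. coli RNA polymerase. Runs were done without input, with 200 uM small-molecule ligand, or with an oligonucleotide input. Apparent KD is the per-design median over clusters of curve-fitted normalised fluorescence.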

[1] = input ligand: microRNA oligo, concentration not stated
[2] = Eterna round: R95, input ligand: FMN 200 uM
[3] = Eterna round: R95, input ligand: microRNA oligo, concentration not stated
[4] = Eterna round: R95, input ligand: none

For “GCACGAAGUGUAGGAUAUCUGUGCGAUUAGCUCAGAGAAGGACACAUGAGGAUCACCCAUGUGUUUCACGGAAACGAAACGUGC [Eli exng1 - 054] (Eterna round: R96, puzzle: Exclusion NG 1)”, the “apparent KD of MS2 coat protein” value (input ligand: FMN 200 uM) was 10.7 nM, the “apparent KD of MS2 coat protein” value [1] was 9.54 nM and the “apparent KD of MS2 coat protein” value (input ligand: none) was 16.2 nM.

For “GCACGAUAUCAGGAUAUGACUAGCUUCGGCUAGUCAGAAGGGAUGACAUGAGGAUCACCCAUGUGAUCACGUGC [E6/1-B1] (Eterna round: R97, puzzle: Exclusion 6)”, the “apparent KD of MS2 coat protein” value (input ligand: FMN 200 uM) was 79.6 nM and the “apparent KD of MS2 coat protein” value (input ligand: none) was 60.5 nM.

With “GCACGGAGUGUAGGAUAUCUGUGCGAUUAGCUCAGAGAAGGACACAUGAGGAUCACCCAUGUGUAACUCAACAAUAAUCCGUGC [Eli exng1 - 073] (Eterna round: R96, puzzle: Exclusion NG 1)” the “apparent KD of MS2 coat protein” value (input ligand: FMN 200 uM) was 18.3 nM, the “apparent KD of MS2 coat protein” value [1] was 8.53 nM and the “apparent KD of MS2 coat protein” value (input ligand: none) was 11.9 nM.

“GCACGGAGUGUAGGAUAUUAGUGCGAUUAGCACUGAGAAGGACAUGAGGAUCACCCAUGUUCCUCGAUAAAAUACCUUCCGUGC [Eli exng1 - 041] (Eterna round: R96, puzzle: Exclusion NG 1)” was tested, and the “apparent KD of MS2 coat protein” value (input ligand: FMN 200 uM) was 13.2 nM, the “apparent KD of MS2 coat protein” value [1] was 7.59 nM and the “apparent KD of MS2 coat protein” value (input ligand: none) was 11.8 nM.

With “GCACGGUAAGUGAGGAUAUACCUCUGGAUACAGAGGUAGAAGGCACAUGAGGAUCACCCAUGUCUAAACCGUGC [Fiskers BMX 4 - 82] (puzzle: Brourd's mod of Exclusion 4)” the “apparent KD of MS2 coat protein” value [2] was 24.9 nM, the “apparent KD of MS2 coat protein” value [3] was 18.6 nM and the “apparent KD of MS2 coat protein” value [4] was 18 nM.

For “GCACUGGCAGGAUAUACAUGAGGAUCACCCAUGUGAUCCCUUAAGUACAAAAGUACUAGUAGAAGGGCCUGUGC [Omei Ex3 Model Bachelor's Dilema v46] (Eterna round: R97, puzzle: Exclusion 3)”, the “apparent KD of MS2 coat protein” value (input ligand: FMN 200 uM) was 307 nM and the “apparent KD of MS2 coat protein” value (input ligand: none) was 785 nM.

For “GCAGAUGUAGUGAGGAUAUGCUCUACCUCGGUAGAGCAGAAGGCACAUGAGGAUCACCCAUGUGAUUCAUCUGC [Omei Ex4B B7] (Eterna round: R97, puzzle: Brourd's mod of Exclusion 4)”, the “apparent KD of MS2 coat protein” value (input ligand: FMN 200 uM) was 211 nM and the “apparent KD of MS2 coat protein” value (input ligand: none) was 28.6 nM.

“GCAGCAAACUCUAUUAAAACCACAUGAGGAUCACCCAUGUCUCAGGAUAUGGUCUGGAUUACAGGCCAGAAGGGAGAAAGCUGC [Eli exng3 - 054] (Eterna round: R96, puzzle: Exclusion NG 3)” was tested, and the “apparent KD of MS2 coat protein” value (input ligand: FMN 200 uM) was 15 nM, the “apparent KD of MS2 coat protein” value [1] was 10.9 nM and the “apparent KD of MS2 coat protein” value (input ligand: none) was 15.1 nM.

For “GCAGCAUAGUAUACUUACUGUUACAUGAGGAUCACCCAUGUACAGGAUAUGGUCUGGAUUACAGGCCAGAAGGGUACAAGCUGC [Eli exng3 - 024] (Eterna round: R96, puzzle: Exclusion NG 3)”, the “apparent KD of MS2 coat protein” value (input ligand: FMN 200 uM) was 10.3 nM, the “apparent KD of MS2 coat protein” value [1] was 8.12 nM and the “apparent KD of MS2 coat protein” value (input ligand: none) was 11.7 nM.

In the case of “GCAGCAUAGUCGGAAACGACAGAACAUGAGGAUCACCCAUGUUAGGAUAUGGUCUGGAUUACAGGCCAGAAGGGACAAAGCUGC [Eli exng3 - 009] (Eterna round: R96, puzzle: Exclusion NG 3)”, the “apparent KD of MS2 coat protein” value (input ligand: FMN 200 uM) was 34.8 nM, the “apparent KD of MS2 coat protein” value [1] was 29.7 nM and the “apparent KD of MS2 coat protein” value (input ligand: none) was 39.9 nM.

With “GCAGCUGCUCUAGGAUAUAUUUUAGCACAUGAGGAUCACCCAUGUGGGACCACAACAGCGCAAGAAUAGAAGGAGACAGCAGUA [Eternabot solution 32] (Eterna round: R96, puzzle: Exclusion NG 2)” the “apparent KD of MS2 coat protein” value (input ligand: FMN 200 uM) was 506 nM, the “apparent KD of MS2 coat protein” value [1] was 125 nM and the “apparent KD of MS2 coat protein” value (input ligand: none) was 129 nM.

For “GCAUCCAAAGUGAGGAUAUACCUCUGGAUACAGAGGUAGAAGGCACAUGAGGAUCACCCAUGUUUCUAGGAUGC [Fiskers BMX 4 - 37] (puzzle: Brourd's mod of Exclusion 4)”, the “apparent KD of MS2 coat protein” value [2] was 21.2 nM, the “apparent KD of MS2 coat protein” value [3] was 13.3 nM and the “apparent KD of MS2 coat protein” value [4] was 13.9 nM.

“GCAUCGGCAGGAUAUACGCCGUAUGACAUGAGGAUCACCCAUGUUCCCGAGUCACAGAAAGUAGAAGGGCUGGAUA [Eternabot (L2) Solution 70] (Eterna round: R97, puzzle: Exclusion 5)” was tested, and the “apparent KD of MS2 coat protein” value (input ligand: FMN 200 uM) was 236 nM and the “apparent KD of MS2 coat protein” value (input ligand: none) was 182 nM.
